Tests used:
[1] = biological target: T1, K66R mutant of soluble human IL-11Rα (SEQ ID NO: 96) (human, UniProt Q14626 23-318); test: Biacore
T1 construct: also called K44R
T1 sequence: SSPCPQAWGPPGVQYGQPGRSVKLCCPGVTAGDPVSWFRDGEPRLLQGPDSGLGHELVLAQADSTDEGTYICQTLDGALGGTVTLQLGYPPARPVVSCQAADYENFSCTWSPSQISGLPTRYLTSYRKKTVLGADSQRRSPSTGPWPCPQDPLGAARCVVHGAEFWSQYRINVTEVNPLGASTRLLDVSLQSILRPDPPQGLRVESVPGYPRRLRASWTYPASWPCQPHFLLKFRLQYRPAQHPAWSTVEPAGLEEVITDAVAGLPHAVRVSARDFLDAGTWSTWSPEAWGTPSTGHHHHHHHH
Protocol: (§1) Anti human IgG Fc specific antibody was chemically immobilized on a CM5 chip to ˜9000 RU. Antibodies were captured at about 0.3-1 μg/ml for 120 seconds on 2 spots in each flow cell. Adjacent spots consisting of only anti human IgG were used as a reference. IL-11 receptors were injected over the captured antibodies and reference spots at 40, 10, 5 and 2.5 nM in duplicate. Blank injections of buffer only were also performed in duplicate. Injection was performed for 3 minutes and dissociation monitored for a further 5 minutes.
The K66R mutation led to a decrease in KD of just over twofold when compared to WT D1/2 (SEQ ID NO: 85) for antibodies 8E2 and 8D10, indicating some involvement of this residue in antibody binding.

[2] = biological target: T2, polypeptide of SEQ ID NO: 86 (human IL-11Rα 23-110 and mouse IL-11Rα 111-367, 8×HIS tag) (human and mouse (chimera), UniProt Q64385 23-367 (mouse entry)); test: Biacore, antibody captured; N/B: no or ablated binding
T2 chain: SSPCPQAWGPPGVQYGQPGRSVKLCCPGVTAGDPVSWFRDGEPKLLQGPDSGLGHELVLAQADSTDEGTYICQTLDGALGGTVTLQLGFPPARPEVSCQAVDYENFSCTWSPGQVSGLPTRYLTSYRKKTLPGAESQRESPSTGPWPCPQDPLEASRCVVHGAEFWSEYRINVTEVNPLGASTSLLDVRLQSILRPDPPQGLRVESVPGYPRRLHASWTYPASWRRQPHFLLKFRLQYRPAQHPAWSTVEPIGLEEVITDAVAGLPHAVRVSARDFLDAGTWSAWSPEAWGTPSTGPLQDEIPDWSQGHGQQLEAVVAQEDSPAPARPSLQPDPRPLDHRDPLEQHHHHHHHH
Protocol: (§2) Various soluble forms of IL-11R comprising regions of hIL-11R and mIL-11R were produced and comprise sequences as set forth in SEQ ID NOs: 3 and 86-90 and the binding of antibodies 8E2, 8D10 and 8E4 to those polypeptides was determined using Western blotting or Biacore analysis.
(§3) For Biacore analysis, anti-human was IgG immobilized on the sensor surface at ˜10,000-12,000 RU and each antibody was captured at between 0.2 μg/ml and 0.5 μg/ml every cycle for 120 seconds. IL-11 receptors were injected over captured antibodies at varying concentrations, ranging from 1 μM down to 2.5 nM, including injections of buffer blanks. Association was monitored for 3-5 minutes, dissociation was monitored for 3-10 minutes. Approximate affinities were determined by fitting binding curves of each interaction to a 1:1 Kinetic Model.

[3] = biological target: T3, polypeptide of SEQ ID NO: 89 (mouse IL-11Rα 24-215 and human IL-11Rα 216-363, 8×HIS tag) (mouse and human (chimera), UniProt P70225 24-363); test: as above
T3 chain: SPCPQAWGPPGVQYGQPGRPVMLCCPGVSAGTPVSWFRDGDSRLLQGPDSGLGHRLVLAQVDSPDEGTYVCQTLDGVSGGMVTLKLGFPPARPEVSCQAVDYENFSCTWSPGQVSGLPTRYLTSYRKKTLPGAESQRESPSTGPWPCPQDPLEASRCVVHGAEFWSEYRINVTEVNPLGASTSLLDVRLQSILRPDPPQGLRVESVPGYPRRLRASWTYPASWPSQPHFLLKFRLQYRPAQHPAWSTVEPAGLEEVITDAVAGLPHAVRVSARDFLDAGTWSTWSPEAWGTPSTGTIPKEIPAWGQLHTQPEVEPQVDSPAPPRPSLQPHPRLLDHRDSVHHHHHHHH
Protocol: as §2, §3

[4] = biological target: T4, polypeptide of SEQ ID NO: 90 (amino acids 24 to 367 of mouse IL-11Rα, serine at position 206, 8×HIS tag) (mouse, UniProt Q64385 24-367); test: as above
T4 construct: also called soluble mIL-11Rα
T4 sequence: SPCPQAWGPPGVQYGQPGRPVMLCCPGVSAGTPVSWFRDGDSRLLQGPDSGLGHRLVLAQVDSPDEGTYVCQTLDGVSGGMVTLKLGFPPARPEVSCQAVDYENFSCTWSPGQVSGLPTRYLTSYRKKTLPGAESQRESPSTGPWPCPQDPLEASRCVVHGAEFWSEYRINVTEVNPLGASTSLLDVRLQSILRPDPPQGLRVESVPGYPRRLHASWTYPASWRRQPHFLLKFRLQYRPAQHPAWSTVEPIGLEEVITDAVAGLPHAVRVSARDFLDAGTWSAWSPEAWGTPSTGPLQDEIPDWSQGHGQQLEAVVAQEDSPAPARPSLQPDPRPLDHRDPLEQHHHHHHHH
Protocol: as §2, §3

[5] = biological target: T5, V117E mutant of soluble human IL-11Rα (SEQ ID NO: 95) (human, UniProt Q14626 23-318); test: Biacore, antibody captured; * indicates undetectable binding
T5 construct: also called V95E
T5 sequence: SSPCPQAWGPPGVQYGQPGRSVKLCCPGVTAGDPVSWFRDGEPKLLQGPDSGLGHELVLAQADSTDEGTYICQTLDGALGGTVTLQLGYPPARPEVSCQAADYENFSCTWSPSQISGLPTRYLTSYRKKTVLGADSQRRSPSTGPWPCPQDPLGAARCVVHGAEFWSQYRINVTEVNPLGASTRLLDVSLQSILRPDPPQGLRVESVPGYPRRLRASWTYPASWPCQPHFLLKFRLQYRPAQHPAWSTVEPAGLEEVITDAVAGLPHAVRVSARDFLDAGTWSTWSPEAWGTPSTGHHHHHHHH
Protocol: Various point mutants of soluble forms of IL-11R were produced in which amino acids from mIL-11 were introduced into a soluble form of hIL-11 (SEQ ID NO: 85) (see Table 5 for positions of mutations relative to SEQ ID NO: 1 and for reference to the SEQ ID NO: of each polypeptide) and the binding of antibodies to those polypeptides or to polypeptides of SEQ ID NO: 3 or SEQ ID NO: 85 was determined using Biacore analysis or FACS.
as §1

B1: antibody 8D10 (antibody, human IgG4 S228P, kappa, V domains shown)
VH: EVQLLESGGGLVQPGGSLRLSCAASGFTFSRYMMGWVRQAPGKGLEWVSSIVPSGGITIYADSVKGRFTISRDNSKNTLYLQMNSLRAEDTAVYYCARDHMGIVATDWGQGTLVTVSS
VL: DIQMTQSPSSLSASVGDRVTITCQASQDITNYLNWYLHKPGKAPKLLIYDASNLQTGVPSRFSGSGSGTDFTFTITSLQPEDFGTYYCQQYDTLHPSFGPGTTVDIKR
B1 was tested, and the “fold change in KD compared to WT D1/2 (SEQ ID NO: 85)” value [1] was over 2 fold, the binding result [2] was “no binding” and the binding result [3] was “no binding”. B1: no binding [4]; no binding [5].
